According to patent publication US20140072613A1 (published 2014):

T1: MRCKβ(h) (human, UniProt Q9Y5S2 1-473, limits assumed)
T1 sequence (looked up): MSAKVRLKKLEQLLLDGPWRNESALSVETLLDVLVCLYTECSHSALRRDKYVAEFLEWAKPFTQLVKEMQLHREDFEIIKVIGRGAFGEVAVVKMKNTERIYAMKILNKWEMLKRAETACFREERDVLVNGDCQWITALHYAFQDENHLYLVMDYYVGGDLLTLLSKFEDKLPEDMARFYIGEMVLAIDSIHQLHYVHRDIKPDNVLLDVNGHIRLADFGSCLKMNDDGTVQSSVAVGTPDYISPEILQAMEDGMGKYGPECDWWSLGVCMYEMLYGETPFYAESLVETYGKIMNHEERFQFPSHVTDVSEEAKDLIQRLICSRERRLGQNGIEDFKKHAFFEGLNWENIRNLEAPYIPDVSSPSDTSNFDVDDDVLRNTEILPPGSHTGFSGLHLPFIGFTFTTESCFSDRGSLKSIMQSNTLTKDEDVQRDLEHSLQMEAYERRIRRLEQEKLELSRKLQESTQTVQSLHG

T2: ARK5(h) (human, UniProt O60285 1-661, limits assumed)
T2 sequence (looked up): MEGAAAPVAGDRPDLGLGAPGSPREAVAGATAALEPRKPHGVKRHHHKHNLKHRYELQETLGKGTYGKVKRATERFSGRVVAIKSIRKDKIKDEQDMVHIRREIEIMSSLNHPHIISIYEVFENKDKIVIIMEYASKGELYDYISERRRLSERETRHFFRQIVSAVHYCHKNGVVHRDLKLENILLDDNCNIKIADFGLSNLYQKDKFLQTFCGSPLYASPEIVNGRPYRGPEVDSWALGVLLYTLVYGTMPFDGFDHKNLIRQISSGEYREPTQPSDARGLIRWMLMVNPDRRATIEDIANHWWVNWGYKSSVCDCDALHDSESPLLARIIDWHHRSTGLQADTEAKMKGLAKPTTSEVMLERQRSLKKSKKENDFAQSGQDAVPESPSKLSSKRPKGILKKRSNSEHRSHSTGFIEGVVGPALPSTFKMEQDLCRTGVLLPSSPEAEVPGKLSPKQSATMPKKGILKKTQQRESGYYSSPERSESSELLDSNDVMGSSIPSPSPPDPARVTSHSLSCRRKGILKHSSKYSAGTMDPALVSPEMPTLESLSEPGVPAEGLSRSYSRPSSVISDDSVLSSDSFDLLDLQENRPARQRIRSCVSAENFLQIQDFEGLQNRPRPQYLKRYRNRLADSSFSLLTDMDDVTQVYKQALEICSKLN

T3: MST1(h) (human, UniProt Q13043 1-487)
T3 sequence (looked up): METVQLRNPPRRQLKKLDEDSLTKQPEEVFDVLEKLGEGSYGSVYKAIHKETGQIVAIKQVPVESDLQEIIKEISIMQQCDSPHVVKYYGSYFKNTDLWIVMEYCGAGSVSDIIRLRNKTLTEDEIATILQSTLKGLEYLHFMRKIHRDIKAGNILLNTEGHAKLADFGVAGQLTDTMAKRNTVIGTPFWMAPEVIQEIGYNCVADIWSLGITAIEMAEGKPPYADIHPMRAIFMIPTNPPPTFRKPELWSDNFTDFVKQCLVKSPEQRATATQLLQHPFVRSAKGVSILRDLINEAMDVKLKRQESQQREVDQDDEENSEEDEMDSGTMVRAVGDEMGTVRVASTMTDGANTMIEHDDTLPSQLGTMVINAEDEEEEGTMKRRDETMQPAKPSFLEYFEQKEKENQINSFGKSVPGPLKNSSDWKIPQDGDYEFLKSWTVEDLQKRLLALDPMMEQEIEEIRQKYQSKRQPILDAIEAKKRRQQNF

T4: PKCε(h) (human, UniProt Q02156 1-737)
T4 sequence (looked up): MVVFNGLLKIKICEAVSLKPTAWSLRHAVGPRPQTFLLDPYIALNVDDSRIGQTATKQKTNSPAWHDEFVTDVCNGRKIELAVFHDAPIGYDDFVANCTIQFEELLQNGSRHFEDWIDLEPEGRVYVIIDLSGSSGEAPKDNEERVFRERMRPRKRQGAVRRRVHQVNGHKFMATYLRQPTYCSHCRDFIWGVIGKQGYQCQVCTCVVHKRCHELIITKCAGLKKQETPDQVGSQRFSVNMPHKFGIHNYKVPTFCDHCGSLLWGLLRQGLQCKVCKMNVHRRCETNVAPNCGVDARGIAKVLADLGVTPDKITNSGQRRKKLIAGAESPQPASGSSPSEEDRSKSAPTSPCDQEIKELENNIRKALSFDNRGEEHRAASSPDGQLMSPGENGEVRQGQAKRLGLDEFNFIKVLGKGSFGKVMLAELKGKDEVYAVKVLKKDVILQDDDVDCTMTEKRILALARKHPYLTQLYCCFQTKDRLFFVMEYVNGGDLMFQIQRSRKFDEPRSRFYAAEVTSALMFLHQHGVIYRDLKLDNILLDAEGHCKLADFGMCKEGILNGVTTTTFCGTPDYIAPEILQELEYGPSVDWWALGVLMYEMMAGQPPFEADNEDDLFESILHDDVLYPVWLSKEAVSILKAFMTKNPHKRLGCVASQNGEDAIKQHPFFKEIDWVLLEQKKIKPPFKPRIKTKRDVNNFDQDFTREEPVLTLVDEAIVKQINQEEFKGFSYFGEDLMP


Assays:
Assay in all cases: cell-based or functional assay
MRCKβ(h) = target: T1, MRCKβ(h)
ARK5(h) = target: T2, ARK5(h)
MST1(h) = target: T3, MST1(h)
cSRC(h) = cSRC(h) (human, UniProt P12931 1-536)
PKBα(h) = PKBα(h) (human, UniProt P31749 1-480, limits assumed)
PKCε(h) = target: T4, PKCε(h)
CaMKI(h) = CaMKI(h) (human, UniProt Q14012 1-370)
ErbB4(h) = ErbB4(h) (human, UniProt Q15303 706-991, limits assumed)
EGFR(L861Q)(h) = EGFR(L861Q)(h) (human, UniProt P00533 696-1210, limits assumed)

Binder	% activity, 100 µM (MRCKβ(h))	% activity, 100 µM (ARK5(h))	% activity, 100 µM (MST1(h))	% activity, 100 µM (cSRC(h))	% activity, 100 µM (PKBα(h))	% activity, 100 µM (PKCε(h))	% activity, 100 µM (CaMKI(h))	% activity, 100 µM (ErbB4(h))	% activity, 100 µM (EGFR(L861Q)(h))
KAFAKLAARLYRKALARQLGVAA [MMI-0400]	71%	69%	6%	14%	67%	59%	0%	0%	22%
FAKLAARLYRKALARQLGVAA [MMI-0300]	83%	78%	14%	26%	57%	79%	1%	40%	25%
